Biological target: T1, VexR-MBP (Vibrio cholerae O1 El Tor N16961) (UniProt Q9KVI0)
T1 sequence: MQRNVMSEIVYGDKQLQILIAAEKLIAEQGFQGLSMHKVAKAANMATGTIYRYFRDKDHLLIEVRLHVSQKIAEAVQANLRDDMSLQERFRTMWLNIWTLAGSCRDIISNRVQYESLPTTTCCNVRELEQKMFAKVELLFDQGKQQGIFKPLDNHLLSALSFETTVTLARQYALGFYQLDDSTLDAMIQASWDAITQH
Assay: EMSA

Sequence	binding
GCGGGAGTCGGCAGCGATAATAATCCGCTCACCGAGGATTACCAACAAAGAAACTGCCTTTACAAAAATTTACTGCACAAGTGTATTGCAAAACAGGGGCGCTGCCGACTCCCGC (double strand) [vexR1]	no binding
GCGGGAGTCGGCAGCGGCCGTACACTATTTCAGACATCACATTTCTCTGCAAATGAACGGTTGTTCATTATAGCGGCTAATACCCCCTGTTTTGCACGCTGCCGACTCCCGC (double strand) [vexR2]	binds
